Measured values taken from US20160200782A1 (MOERAE MATRIX, published 2016).

T1: TAO3(h) (human, UniProt Q9H2K8 1-315, limits assumed)
T1 sequence (looked up): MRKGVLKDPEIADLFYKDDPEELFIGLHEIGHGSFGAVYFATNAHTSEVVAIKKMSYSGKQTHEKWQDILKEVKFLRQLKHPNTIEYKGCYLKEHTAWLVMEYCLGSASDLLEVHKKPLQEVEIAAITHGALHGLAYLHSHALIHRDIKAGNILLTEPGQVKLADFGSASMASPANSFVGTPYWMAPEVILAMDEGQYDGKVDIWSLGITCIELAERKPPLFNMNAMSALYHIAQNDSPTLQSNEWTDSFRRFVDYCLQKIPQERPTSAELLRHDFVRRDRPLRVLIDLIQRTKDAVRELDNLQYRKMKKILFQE

T2: TSSK2(h) (human, UniProt Q96PF2 1-358)
T2 sequence (looked up): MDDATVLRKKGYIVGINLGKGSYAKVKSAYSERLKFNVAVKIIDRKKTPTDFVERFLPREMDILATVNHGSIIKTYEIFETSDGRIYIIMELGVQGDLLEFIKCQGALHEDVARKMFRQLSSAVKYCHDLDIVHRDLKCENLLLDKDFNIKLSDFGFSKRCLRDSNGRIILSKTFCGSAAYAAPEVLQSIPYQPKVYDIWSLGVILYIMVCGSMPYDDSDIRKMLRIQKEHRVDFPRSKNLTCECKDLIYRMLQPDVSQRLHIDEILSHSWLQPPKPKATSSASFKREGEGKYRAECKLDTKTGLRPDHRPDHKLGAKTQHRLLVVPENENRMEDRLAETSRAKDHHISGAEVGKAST

T3: EphB3(h) (human, UniProt P54753 581-998, limits assumed)
T3 sequence (looked up): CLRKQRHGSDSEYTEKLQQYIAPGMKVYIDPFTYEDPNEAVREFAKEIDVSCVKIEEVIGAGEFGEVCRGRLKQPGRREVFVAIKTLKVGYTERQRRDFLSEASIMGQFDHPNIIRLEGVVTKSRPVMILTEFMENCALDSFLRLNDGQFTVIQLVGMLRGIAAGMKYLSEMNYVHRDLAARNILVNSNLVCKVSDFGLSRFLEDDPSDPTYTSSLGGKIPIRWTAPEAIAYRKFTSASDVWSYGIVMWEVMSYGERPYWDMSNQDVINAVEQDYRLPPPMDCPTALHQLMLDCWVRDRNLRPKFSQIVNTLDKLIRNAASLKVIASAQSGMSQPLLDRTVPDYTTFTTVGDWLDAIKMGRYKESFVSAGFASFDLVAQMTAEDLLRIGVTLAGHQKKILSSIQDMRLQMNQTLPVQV

T4: Flt1(h) (human, UniProt P17948 781-1338, limits assumed)
T4 sequence (looked up): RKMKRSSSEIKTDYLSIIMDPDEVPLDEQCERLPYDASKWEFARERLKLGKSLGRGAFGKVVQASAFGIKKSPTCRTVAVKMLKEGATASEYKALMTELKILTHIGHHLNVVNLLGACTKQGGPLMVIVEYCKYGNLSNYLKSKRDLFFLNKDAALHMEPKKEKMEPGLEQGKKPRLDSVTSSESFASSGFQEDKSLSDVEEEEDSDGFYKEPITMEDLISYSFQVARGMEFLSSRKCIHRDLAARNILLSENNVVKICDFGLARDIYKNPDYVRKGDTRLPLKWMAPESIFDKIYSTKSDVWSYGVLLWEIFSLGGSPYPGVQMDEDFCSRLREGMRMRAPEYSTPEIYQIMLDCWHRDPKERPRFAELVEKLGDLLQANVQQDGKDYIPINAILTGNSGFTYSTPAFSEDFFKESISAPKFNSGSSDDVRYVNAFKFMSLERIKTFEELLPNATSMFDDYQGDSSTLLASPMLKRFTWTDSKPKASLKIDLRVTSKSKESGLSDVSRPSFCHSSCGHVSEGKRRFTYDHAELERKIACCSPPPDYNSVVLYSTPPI


Tests used:
Assay in all cases: cell-based or functional assay
[1] = target: Fyn(h) (human, UniProt P06241 1-537, limits assumed)
Fyn(h), sequence (P06241 whole entry): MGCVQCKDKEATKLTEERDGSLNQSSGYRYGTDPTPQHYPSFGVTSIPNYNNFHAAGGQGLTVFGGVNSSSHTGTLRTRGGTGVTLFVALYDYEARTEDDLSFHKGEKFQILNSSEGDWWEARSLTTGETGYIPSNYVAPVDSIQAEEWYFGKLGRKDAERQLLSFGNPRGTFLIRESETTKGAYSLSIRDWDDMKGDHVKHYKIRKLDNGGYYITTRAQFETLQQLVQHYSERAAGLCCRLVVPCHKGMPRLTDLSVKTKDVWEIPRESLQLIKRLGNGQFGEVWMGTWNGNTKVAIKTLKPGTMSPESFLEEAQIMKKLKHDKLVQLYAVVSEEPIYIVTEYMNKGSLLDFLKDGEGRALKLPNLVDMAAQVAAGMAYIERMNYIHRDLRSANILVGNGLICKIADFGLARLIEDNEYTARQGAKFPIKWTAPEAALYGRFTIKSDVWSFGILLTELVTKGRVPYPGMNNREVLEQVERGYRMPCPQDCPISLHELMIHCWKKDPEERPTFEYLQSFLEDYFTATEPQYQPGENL

[2] = target: Ab1(Y253F)(h) (human, UniProt P00519 27-1130, limits assumed)
[3] = target: IGF-1R(h), activated (human, UniProt P08069 959-1367, limits assumed)
IGF-1R(h), activated, sequence (P08069 959-1367 limits assumed): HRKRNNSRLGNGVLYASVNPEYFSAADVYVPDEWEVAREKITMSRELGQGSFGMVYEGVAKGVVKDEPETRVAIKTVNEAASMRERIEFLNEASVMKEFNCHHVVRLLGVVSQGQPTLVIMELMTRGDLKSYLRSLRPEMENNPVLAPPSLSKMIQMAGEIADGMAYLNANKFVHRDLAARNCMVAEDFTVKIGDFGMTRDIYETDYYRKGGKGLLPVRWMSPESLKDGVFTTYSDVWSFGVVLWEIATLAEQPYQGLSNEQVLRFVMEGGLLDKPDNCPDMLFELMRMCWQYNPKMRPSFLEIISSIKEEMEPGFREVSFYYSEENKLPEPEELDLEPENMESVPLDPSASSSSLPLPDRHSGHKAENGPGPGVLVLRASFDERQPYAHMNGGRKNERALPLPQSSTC

[4] = target: MLCK(h) (human)
[5] = target: PASK(h) (human, UniProt Q96RG2 879-1323, limits assumed)
PASK(h), sequence (Q96RG2 879-1323 limits assumed): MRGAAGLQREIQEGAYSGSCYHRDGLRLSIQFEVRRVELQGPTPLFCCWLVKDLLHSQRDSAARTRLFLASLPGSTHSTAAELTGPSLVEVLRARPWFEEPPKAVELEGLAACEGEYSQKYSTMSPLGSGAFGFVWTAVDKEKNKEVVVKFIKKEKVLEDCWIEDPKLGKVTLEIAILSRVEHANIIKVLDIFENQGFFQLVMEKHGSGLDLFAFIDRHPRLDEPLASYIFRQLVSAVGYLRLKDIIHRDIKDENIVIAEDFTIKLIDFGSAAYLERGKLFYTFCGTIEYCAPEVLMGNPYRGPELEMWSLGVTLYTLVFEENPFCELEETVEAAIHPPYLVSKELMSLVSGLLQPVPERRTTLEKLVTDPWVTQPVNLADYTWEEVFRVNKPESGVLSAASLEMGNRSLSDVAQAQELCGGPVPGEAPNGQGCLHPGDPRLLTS

[6] = target: PDGFRα(h) (human, UniProt P16234 550-1089, limits assumed)
PDGFRα(h), sequence (P16234 550-1089 limits assumed): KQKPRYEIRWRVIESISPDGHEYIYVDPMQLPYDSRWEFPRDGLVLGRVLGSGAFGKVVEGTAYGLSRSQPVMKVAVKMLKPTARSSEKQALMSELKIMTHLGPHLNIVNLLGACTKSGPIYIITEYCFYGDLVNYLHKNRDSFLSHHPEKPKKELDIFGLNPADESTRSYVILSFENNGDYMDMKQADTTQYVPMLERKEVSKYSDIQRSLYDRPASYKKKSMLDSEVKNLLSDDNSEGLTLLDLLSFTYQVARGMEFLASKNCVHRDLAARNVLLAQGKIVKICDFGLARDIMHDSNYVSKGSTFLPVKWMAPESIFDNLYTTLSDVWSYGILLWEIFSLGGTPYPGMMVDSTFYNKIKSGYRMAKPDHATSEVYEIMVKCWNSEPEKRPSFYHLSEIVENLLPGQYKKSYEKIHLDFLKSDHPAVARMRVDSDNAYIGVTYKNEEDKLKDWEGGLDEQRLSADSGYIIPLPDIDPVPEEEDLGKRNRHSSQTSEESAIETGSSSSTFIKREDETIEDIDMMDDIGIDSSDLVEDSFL

[7] = target: PKCα(h) (human, UniProt P17252 1-672)
[8] = target: Rsk4(h) (human, UniProt Q9UK32 1-745, limits assumed)
Rsk4(h), sequence (Q9UK32 whole entry): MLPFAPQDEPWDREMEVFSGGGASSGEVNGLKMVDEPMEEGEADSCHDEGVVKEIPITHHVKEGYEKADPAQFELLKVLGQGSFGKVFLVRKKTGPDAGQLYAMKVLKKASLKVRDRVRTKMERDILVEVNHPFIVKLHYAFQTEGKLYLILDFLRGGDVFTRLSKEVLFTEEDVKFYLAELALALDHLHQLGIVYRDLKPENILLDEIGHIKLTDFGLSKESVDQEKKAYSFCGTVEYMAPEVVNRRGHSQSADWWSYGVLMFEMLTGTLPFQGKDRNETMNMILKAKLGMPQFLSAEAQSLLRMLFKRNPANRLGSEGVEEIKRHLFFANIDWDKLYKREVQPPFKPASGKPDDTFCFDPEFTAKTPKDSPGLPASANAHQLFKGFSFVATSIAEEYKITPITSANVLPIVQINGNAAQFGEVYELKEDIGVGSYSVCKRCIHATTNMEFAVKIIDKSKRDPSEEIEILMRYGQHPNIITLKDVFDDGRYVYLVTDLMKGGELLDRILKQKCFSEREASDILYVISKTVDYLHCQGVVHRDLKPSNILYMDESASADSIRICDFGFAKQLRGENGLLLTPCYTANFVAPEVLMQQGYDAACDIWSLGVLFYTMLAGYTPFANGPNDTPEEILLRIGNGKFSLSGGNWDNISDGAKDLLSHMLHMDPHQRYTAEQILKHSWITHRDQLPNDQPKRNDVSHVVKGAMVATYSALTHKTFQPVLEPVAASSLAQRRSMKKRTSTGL

[9] = target: SAPK2a(h) (human, UniProt Q16539 1-360)
SAPK2a(h), sequence (Q16539 whole entry): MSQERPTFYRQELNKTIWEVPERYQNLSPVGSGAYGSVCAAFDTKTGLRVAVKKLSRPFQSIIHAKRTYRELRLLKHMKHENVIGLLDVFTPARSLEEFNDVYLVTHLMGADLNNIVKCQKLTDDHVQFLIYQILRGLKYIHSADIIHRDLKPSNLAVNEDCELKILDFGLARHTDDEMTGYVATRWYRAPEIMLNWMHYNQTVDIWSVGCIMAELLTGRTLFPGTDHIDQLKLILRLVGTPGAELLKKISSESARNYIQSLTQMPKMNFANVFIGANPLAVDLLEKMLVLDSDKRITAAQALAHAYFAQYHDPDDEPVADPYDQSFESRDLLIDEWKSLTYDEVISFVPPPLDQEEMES

[10] = target: SIK(h) (human, UniProt P57059 1-783, limits assumed)
SIK(h), sequence (P57059 whole entry): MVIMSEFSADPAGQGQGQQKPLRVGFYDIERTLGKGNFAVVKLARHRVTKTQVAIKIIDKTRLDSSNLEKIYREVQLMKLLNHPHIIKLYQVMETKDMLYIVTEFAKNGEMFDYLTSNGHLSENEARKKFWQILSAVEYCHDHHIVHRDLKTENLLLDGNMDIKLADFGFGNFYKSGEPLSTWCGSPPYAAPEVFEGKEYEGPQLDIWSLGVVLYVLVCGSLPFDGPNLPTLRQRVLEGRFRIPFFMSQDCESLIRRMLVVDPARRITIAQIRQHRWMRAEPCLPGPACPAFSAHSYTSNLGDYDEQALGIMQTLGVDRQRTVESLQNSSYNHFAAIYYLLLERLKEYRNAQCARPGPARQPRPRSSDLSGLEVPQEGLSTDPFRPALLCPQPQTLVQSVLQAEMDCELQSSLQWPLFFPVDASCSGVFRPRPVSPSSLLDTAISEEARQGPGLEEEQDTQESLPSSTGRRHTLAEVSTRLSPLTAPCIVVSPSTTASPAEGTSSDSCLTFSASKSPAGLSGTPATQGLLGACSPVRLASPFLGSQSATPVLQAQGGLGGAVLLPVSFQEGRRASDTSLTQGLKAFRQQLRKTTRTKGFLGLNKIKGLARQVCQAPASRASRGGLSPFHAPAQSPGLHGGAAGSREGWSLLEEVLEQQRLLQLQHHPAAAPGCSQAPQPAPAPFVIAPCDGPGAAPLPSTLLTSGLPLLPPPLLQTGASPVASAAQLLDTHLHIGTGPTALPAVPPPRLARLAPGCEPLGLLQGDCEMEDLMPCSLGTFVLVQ

[11] = target: T1, TAO3(h)
[12] = target: T2, TSSK2(h)
[13] = target: CDK3/cyclinE(h) (human, UniProt Q00526 1-305; Q00526 1-305)
CDK3/cyclinE(h), sequence (Q00526 whole entry, chain 1 of 2): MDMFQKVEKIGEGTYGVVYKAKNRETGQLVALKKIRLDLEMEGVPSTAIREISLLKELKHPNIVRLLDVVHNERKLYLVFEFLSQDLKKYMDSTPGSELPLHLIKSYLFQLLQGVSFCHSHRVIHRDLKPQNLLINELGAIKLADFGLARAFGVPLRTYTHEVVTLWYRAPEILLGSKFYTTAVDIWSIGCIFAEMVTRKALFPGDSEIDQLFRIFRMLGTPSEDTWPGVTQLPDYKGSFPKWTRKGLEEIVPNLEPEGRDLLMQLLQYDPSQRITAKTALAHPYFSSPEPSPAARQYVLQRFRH
CDK3/cyclinE(h), sequence (Q00526 whole entry, chain 2 of 2): as the sequence (Q00526 whole entry, chain 1 of 2) above

[14] = target: T3, EphB3(h)
[15] = target: T4, Flt1(h)

| % activity [1] [%] | % activity [2] [%] | % activity [3] [%] | % activity [4] [%] | % activity [5] [%] | % activity [6] [%] | % activity [7] [%] | % activity [8] [%] | % activity [9] [%] | % activity [10] [%] | % activity [11] [%] | % activity [12] [%] | % activity [13] [%] | % activity [14] [%] | % activity [15] [%] | Binder |
| --- | --- | --- | --- | --- | --- | --- | --- | --- | --- | --- | --- | --- | --- | --- | --- |
| 54 | 78 | 77 | 1 | 28 | 40 | 86 | 91 | 85 | 68 | 67 | 94 | 92 | 47 | 48 | KAFAKLAARLYRKALARQLGVAA [MMI-0400] |
| 74 | 86 | 80 | 2 | 29 | 65 | 89 | 90 | 90 | 66 | 77 | 98 | 94 | 62 | 69 | FAKLAARLYRKALARQLGVAA [MMI-0300] |
